From patent publication US20150045540A1 (published 2015)

T1: Placenta Growth Factor (PlGF), human (human, UniProt P49763 21-149)
T1 chain: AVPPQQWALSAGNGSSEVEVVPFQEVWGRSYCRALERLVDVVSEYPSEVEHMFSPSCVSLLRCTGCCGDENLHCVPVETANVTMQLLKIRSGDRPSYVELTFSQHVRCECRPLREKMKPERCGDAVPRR

B1: HC 6/SLC 4 (antibody)
chain 1: GQGTLVTVSSASTKGPQPVLHQPPAMSSALGTTIRLTCTLRNDHDIGVYSVYWYQQRPGHPPRFLLRYFSQSDKSQGPQVPPRFSGSKDVARNRGYLSISELQPEDEAMYYCAMGARSRCWPRGFQSKHNSVTHVFGSGTQLTVLSQPKATPSVTLFPPSSEELQANKATLVCLMNDFYPGILTVTWKADGTPITQGVEMTTPSKQSNNKYAASSYLSLTPEQWRSRRSYSCQVMHEGSTVEKTVAPAECS
chain 2: MSWAPVLLMLFVYCTGCGPQPVLHQPPAMSSALGTTIRLTCTLRNDHDIGVYSVYWYQQRPGHPPRFLLRYFSQSDKSQGPQVPPRFSGSKDVARNRGYLSISVTHVFGSGTQLTVLSQPKQVQLVQ
B2: HC 10/SLC 4 (antibody)
chain 1: GQGTLVTVSSASTKGPSVFPQPVLHQPPAMSSALGTTIRLTCTLRNDHDIGVYSVYWYQQRPGHPPRFLLRYFSQSDKSQGPQVPPRFSGSKDVARNRGYLSISELQPEDEAMYYCAMGARSRCWPRGFQSKHNSVTHVFGSGTQLTVLSQPKATPSVTLFPPSSEELQANKATLVCLMNDFYPGILTVTWKADGTPITQGVEMTTPSKQSNNKYAASSYLSLTPEQWRSRRSYSCQVMHEGSTVEKTVAPAECS
chain 2: B1 chain 2
B3: HC 2/SLC 4 (antibody)
chain 1: GQGTLVTVSSASQPVLHQPPAMSSALGTTIRLTCTLRNDHDIGVYSVYWYQQRPGHPPRFLLRYFSQSDKSQGPQVPPRFSGSKDVARNRGYLSISELQPEDEAMYYCAMGARSRCWPRGFQSKHNSVTHVFGSGTQLTVLSQPKATPSVTLFPPSSEELQANKATLVCLMNDFYPGILTVTWKADGTPITQGVEMTTPSKQSNNKYAASSYLSLTPEQWRSRRSYSCQVMHEGSTVEKTVAPAECS
chain 2: B1 chain 2
B4: HC 7/SLC 15 (antibody)
chain 1: GQGTLVTVSSASTKGPSQPVLHQPPAMSSALGTTIRLTCTLRNDHDIGVYSVYWYQQRPGHPPRFLLRYFSQSDKSQGPQVPPRFSGSKDVARNRGYLSISELQPEDEAMYYCAMGARSRCWPRGFQSKHNSVTHVFGSGTQLTVLSQPKATPSVTLFPPSSEELQANKATLVCLMNDFYPGILTVTWKADGTPITQGVEMTTPSKQSNNKYAASSYLSLTPEQWRSRRSYSCQVMHEGSTVEKTVAPAECS
chain 2: MSWAPVLLMLFVYCTGCGPQPVLHQPPAMSSALGTTIRLTCTLRNDHDIGVYSVYWYQQRPGHPPRFLLRYFSQSDKSQGPQVPPRFSGSKDVARNRGYLSISVTHVFGSGTQLTVLSQPKATPSVTGGGGSQVQLVQ
B5: HC 5/SLC 6 (antibody)
chain 1: GQGTLVTVSSASTKGQPVLHQPPAMSSALGTTIRLTCTLRNDHDIGVYSVYWYQQRPGHPPRFLLRYFSQSDKSQGPQVPPRFSGSKDVARNRGYLSISELQPEDEAMYYCAMGARSRCWPRGFQSKHNSVTHVFGSGTQLTVLSQPKATPSVTLFPPSSEELQANKATLVCLMNDFYPGILTVTWKADGTPITQGVEMTTPSKQSNNKYAASSYLSLTPEQWRSRRSYSCQVMHEGSTVEKTVAPAECS
chain 2: MSWAPVLLMLFVYCTGCGPQPVLHQPPAMSSALGTTIRLTCTLRNDHDIGVYSVYWYQQRPGHPPRFLLRYFSQSDKSQGPQVPPRFSGSKDVARNRGYLSISVTHVFGSGTQLTVLSQPKATQVQLVQ
B6: HC 10/SLC 6 (antibody)
chain 1: B2 chain 1
chain 2: B5 chain 2
B7: HC 2/SLC 6 (antibody)
chain 1: B3 chain 1
chain 2: B5 chain 2
B8: HC 3/SLC 8 (antibody)
chain 1: GQGTLVTVSSASTQPVLHQPPAMSSALGTTIRLTCTLRNDHDIGVYSVYWYQQRPGHPPRFLLRYFSQSDKSQGPQVPPRFSGSKDVARNRGYLSISELQPEDEAMYYCAMGARSRCWPRGFQSKHNSVTHVFGSGTQLTVLSQPKATPSVTLFPPSSEELQANKATLVCLMNDFYPGILTVTWKADGTPITQGVEMTTPSKQSNNKYAASSYLSLTPEQWRSRRSYSCQVMHEGSTVEKTVAPAECS
chain 2: MSWAPVLLMLFVYCTGCGPQPVLHQPPAMSSALGTTIRLTCTLRNDHDIGVYSVYWYQQRPGHPPRFLLRYFSQSDKSQGPQVPPRFSGSKDVARNRGYLSISVTHVFGSGTQLTVLSQPKATPSQVQLVQ
B9: HC 3/SLC 5 (antibody)
chain 1: B8 chain 1
chain 2: MSWAPVLLMLFVYCTGCGPQPVLHQPPAMSSALGTTIRLTCTLRNDHDIGVYSVYWYQQRPGHPPRFLLRYFSQSDKSQGPQVPPRFSGSKDVARNRGYLSISVTHVFGSGTQLTVLSQPKAQVQLVQ
B10: HC 3/SLC 4 (antibody)
chain 1: B8 chain 1
chain 2: B1 chain 2

Molecular target: T1, Placenta Growth Factor (PlGF), human
Test: ELISA

Q: How did the EC50 turn out when B1 was run?
A: 0.191 nM

Q: How did the EC50 turn out when B2 was run?
A: 0.153 nM

Q: With B3 as the binder, how does the EC50 read?
A: 0.175 nM

Q: How did the EC50 turn out when B4 was run?
A: 0.052 nM

Q: With B5 as the binder, how does the EC50 read?
A: 0.157 nM

Q: Which EC50 does the source give for B6 here?
A: 0.089 nM

Q: How did the EC50 turn out when B7 was run?
A: 0.161 nM

Q: B8 was tested. Which EC50 did it give?
A: 0.157 nM

Q: With B9 as the binder, how does the EC50 read?
A: 0.249 nM

Q: For B10, which EC50 is on record?
A: 0.22 nM

Molecular target: Hepatocyte Growth Factor (HGF), human (human, UniProt P14210 32-728)
Sequence (P14210 32-728): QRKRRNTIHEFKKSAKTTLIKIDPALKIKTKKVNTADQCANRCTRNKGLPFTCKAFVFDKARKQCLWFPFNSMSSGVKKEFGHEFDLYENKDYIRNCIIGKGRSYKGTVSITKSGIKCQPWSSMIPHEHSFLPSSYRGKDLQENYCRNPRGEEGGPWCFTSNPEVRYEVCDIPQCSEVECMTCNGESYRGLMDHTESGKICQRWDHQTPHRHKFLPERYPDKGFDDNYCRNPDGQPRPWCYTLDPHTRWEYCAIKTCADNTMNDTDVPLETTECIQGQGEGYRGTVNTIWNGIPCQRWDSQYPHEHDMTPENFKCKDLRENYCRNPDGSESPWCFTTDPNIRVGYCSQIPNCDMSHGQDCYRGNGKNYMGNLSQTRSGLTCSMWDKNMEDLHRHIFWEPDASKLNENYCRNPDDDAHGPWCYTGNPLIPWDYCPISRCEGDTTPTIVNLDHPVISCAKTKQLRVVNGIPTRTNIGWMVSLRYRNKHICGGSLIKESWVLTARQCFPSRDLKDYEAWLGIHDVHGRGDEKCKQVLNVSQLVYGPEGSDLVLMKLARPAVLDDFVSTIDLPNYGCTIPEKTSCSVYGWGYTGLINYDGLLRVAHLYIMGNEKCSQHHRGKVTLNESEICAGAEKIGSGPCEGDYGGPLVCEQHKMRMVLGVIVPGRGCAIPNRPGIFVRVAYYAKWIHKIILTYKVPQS
Test: ELISA

Q: How did the EC50 turn out when B1 was run?
A: 0.06 nM

Q: For B2, which EC50 is on record?
A: 0.07 nM

Q: B3 was tested. Which EC50 did it give?
A: 0.058 nM

Q: With B4 as the binder, how does the EC50 read?
A: 0.053 nM

Q: How did the EC50 turn out when B5 was run?
A: 0.059 nM

Q: B6 was tested. Which EC50 did it give?
A: 0.061 nM

Q: Which EC50 does the source give for B7 here?
A: 0.056 nM

Q: Which EC50 does the source give for B8 here?
A: 0.056 nM

Q: For B9, which EC50 is on record?
A: 0.054 nM

Q: With B10 as the binder, how does the EC50 read?
A: 0.067 nM
